In paper PMC3527619 one finds percent of Centaurin-α2 in the Triton-insoluble (MT) fraction and percent of Centaurin-α2 in the MT (pellet) fraction data, which are given here for 2 molecules.

Assay [1] has as its target Microtubules (polymerized Tubulin, Triton-insoluble fraction) of HeLa cells (human (endogenous in HeLa)) (UniProt P68363). Briefly: Triton-X-100 extraction of soluble and insoluble (cytoskeletal) fractions, Western blot and densitometry; HeLa cells transfected with pCGN-Centaurin-α2; 0.1% Triton-X-100 in Pipes pH 6.94, EGTA, MgCl2, 2 M glycerol, 10 min at room temperature; control cells or cells treated with nocodazole (3 µg/ml, 3 h) or cold (4°C, 3 h). For orientation: A western blot detects proteins with antibodies after separation by electrophoresis.

In assay [2] the target is Tubulin purified from bovine brain, polymerised to microtubules in vitro (bovine) (UniProt Q6B856). The assay is described as follows: co-sedimentation; as a4 (40 µM tubulin plus 5 µM Centaurin-α2, 90 minutes at 37°C), then 30 minutes of incubation on ice before centrifugation (37°C→4°C).
Assay [3] has the same target. The assay is described as follows: co-sedimentation; 40 µM tubulin plus 5 µM Centaurin-α2, 90 minutes of polymerization at 37°C in 80 mM K-PIPES pH 6.9, 2 mM EGTA, 1 mM MgCl2, 10% glycerol; 16500 g for 30 minutes; supernatant and pellet on SDS-PAGE, Coomassie, densitometry.

UniProt P68363, sequence (P68363 whole entry, chain 1 of 2): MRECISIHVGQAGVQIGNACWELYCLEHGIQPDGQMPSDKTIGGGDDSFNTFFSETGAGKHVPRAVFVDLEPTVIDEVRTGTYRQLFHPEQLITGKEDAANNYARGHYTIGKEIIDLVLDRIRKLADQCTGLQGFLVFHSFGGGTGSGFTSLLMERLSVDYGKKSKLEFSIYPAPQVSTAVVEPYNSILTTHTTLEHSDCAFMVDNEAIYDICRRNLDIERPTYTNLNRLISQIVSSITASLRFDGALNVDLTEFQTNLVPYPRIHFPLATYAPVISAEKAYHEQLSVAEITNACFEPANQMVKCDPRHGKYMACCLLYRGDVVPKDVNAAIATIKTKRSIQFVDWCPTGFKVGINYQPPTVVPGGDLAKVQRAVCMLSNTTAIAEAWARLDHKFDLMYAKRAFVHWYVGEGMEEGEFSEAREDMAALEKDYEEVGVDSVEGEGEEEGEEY
UniProt P68363, sequence (P07437 whole entry, chain 2 of 2, further chain): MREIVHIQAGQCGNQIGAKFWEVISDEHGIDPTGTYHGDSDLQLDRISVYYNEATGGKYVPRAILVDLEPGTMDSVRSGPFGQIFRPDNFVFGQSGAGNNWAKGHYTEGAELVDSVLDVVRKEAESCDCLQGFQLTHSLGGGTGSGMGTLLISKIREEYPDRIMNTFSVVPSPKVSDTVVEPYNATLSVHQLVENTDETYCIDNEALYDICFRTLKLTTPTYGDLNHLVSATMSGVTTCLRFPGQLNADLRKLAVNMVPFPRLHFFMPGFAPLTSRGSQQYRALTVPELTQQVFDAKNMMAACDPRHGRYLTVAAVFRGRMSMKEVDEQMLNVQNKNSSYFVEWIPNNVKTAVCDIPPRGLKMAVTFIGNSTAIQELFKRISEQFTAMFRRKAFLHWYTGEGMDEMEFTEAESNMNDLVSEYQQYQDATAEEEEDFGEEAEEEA

B1: HA (hemoagglutinin)-tagged Centaurin-α2 (pCGN-Centaurin-α2) (natural protein)
chain: MGDRERNKKRLLELLRAPDTGNAHCADCGAADPDWASYKLGIFICLNCCGVHRNFPDISRVKSVRLDFWDDSIVEFMIHNGNLRVKAKFEARVPAFYYIPQANDCLVLKEQWIRAKYERREFMADGETISLPGNREGFLWKRGRDNSQFLRRKFVLLAREGLLKYFTKEQGKSPKAVISIKDLNATFQTEKIGHPHGLQITYRRDGHTRNLFVYHESGKEIVDWFNALRAARLQYLKMAFPELPESELVPFLTRNYLKQGFMEKTGPKQKEPFKKRWFALDCHERRLLYYKNPLDAFEQGQVFLGNKEQGYEAYEDLPKGIRGNRWKAGLTIVTPERRFVLTCPSEKEQQEWLESLRGVLSSPLTPLNRLTASTESGRSSR
Molecule B1 showed a percent of Centaurin-α2 in the Triton-insoluble (MT) fraction in assay [1] of 80%.

B2: His-tagged Centaurin-α2 (recombinant, pET-Centα2) (natural protein)
chain: MGDRERNKKRLLELLRAPDTGNAHCADCGAADPDWASYKLGIFICLNCCGVHRNFPDISRVKSVRLDFWDDSIVEFMIHNGNLRVKAKFEARVPAFYYIPQANDCLVLKEQWIRAKYERREFMADGETISLPGNREGFLWKRGRDNSQFLRRKFVLLAREGLLKYFTKEQGKSPKAVISIKDLNATFQTEKIGHPHGLQITYRRDGHTRNLFVYHESGKEIVDWFNALRAARLQYLKMAFPELPESELVPFLTRNYLKQGFMEKTGPKQKEPFKKRWFALDCHERRLLYYKNPLDAFEQGQVFLGNKEQGYEAYEDLPKGIRGNRWKAGLTIVTPERRFVLTCPSEKEQQEWLESLRGVLSSPLTPLNRLTASTESGRSSR
Turning to B2, the percent of Centaurin-α2 in the MT (pellet) fraction in assay [2] turned out to be 50%; in assay [3], 80%.
